Results: patent US20250042994A1 (HAINAN SIMCERE ZAIMING PHARMACEUTICAL, published 2025)
Values belong to the binder of their own block, whether it stands above or below them.

Experiments:
Human CD19-his protein [1] = biological target: T1, Human CD19-his protein (human, UniProt P15391 20-291); assay: ELISA, antibody at 0.10 nM
T1 construct: bought protein; also called human CD19 protein; recombinant human CD19-His; not shown: His tag
T1 sequence (looked up): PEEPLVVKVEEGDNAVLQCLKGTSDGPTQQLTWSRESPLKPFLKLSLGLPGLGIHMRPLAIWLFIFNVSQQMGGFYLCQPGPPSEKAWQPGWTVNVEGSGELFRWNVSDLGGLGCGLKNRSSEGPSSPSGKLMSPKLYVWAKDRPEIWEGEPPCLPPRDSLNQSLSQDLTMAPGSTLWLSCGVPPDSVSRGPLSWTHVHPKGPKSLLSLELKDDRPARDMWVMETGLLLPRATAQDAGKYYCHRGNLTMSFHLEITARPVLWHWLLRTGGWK

murine CD19 protein = biological target: T2, murine CD19 protein (murine, UniProt P25918 17-287, limits assumed); assay: ELISA, coated murine CD19
T2 construct: bought protein; also called commercial murine CD19
T2 sequence (looked up): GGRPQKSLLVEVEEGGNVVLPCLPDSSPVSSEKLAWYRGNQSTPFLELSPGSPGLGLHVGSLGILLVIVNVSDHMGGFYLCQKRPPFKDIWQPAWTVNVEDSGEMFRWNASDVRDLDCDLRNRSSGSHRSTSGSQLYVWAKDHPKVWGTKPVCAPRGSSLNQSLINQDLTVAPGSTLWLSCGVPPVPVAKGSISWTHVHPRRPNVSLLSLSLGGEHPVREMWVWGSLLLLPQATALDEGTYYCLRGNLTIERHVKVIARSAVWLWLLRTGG
How it was run: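 Plates coated overnight at 4° C with recombinant murine or monkey CD19 and blocked with 2% BSA. Chimeric antibodies, serially diluted from 100 nM, bound for 2 h at 37° C. TMB development for 10 min with OD450 read-out.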

Human CD19-his protein [2] = biological target: T1, Human CD19-his protein; assay: ELISA, antibody at 10 nM
Human CD19-his protein [3] = biological target: T1, Human CD19-his protein; assay: ELISA on coated human CD19-His
Procedure: Human CD19-his protein (purchased from ACROBiosystems, catalog number: CD9-H52H2) was diluted with PBS to a final concentration of 4 μg/mL, and then added to a 96-well ELISA plate at 100 μl/well. The plate was sealed with a plastic film and incubated overnight at 4° C., the plate was washed 2 times with PBS the next day, and then a blocking solution [PBS+2% (w/w) BSA] was added for blocking at room temperature for 2 h. The blocking solution was poured off, and 100 nM gradiently diluted CD19 chimeric antibody or control antibody was added at 50 μl/well. After incubation at 37° C. for 2 h, the plate was washed 3 times with PBS. […] TMB substrate was added at 50 μl/well, and incubated at room temperature for 10 min, and then a stop solution (1.0 N HCl) was added at 50 μl/well. The OD450 nm values were read by an ELISA microplate reader (Multimode Plate Reader, EnSight, purchased from Perkin Elmer).

Human CD19-his protein [4] = biological target: T1, Human CD19-his protein; assay: ELISA, antibody at 0.0001 nM
Human CD19-his protein [5] = biological target: T1, Human CD19-his protein; assay: ELISA, antibody at 0.01 nM
[6] = biological target: T3, human CD19 exon1-3-his protein (human, UniProt P15391 20-186, limits assumed); assay: ELISA, coated at 2 ug/mL
T3 construct: made in HEK293E cells; also called membrane-distal end; not shown: His tag
T3 sequence (looked up): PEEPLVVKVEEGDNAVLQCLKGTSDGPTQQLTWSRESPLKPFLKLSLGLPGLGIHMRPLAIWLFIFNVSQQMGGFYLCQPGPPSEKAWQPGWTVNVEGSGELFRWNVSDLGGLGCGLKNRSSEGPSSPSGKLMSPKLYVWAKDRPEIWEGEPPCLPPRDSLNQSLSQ

Human CD19-his protein [7] = biological target: T1, Human CD19-his protein; assay: ELISA, antibody at 1.00 nM
Human CD19-his protein [8] = biological target: T1, Human CD19-his protein; assay: ELISA, antibody at 0.001 nM
Human CD19-his protein [9] = biological target: T1, Human CD19-his protein; assay: ELISA, antibody at 100 nM

OD450 (Human CD19-his protein [1]): 1.05
binding result (murine CD19 protein): no binding
OD450 (Human CD19-his protein [2]): 1.76
EC50 (read off the curve) (Human CD19-his protein [3]): ~60 pM
OD450 (Human CD19-his protein [4]): 0.08
OD450 (Human CD19-his protein [5]): 0.29
binding result [6]: no binding
OD450 (Human CD19-his protein [7]): 1.55
OD450 (Human CD19-his protein [8]): 0.11
OD450 (Human CD19-his protein [9]): 1.56
B1: F5.2.9 (antibody, human IgG1, V domains shown)
VH: QVTLKESGPGILQPSQTLSLTCSFSGFSLSTFGLGVGWVRQPSGKGLEWLAHIWWDDDKYYNPALKSRVTVSKETSKNQVFFKIANVDTADSATYYCARLSRGLRRDVVYAMDHWGQGTSVTVSS
VL: DIQMTQTTSSLSASLGDRVTISCRASQDISNYLNWYQQKPDGSVKLLISYVSRLQSGVPSRFRGSGSGTDYSLTISNLDQEDIATYFCQQGIAFPYTFGGGTKLDIK
notes: human-murine chimeric antibody, human IgG1

OD450 (Human CD19-his protein [1]): 1.09
binding result (murine CD19 protein): no binding
OD450 (Human CD19-his protein [2]): 1.78
EC50 (read off the curve) (Human CD19-his protein [3]): ~70 pM
OD450 (Human CD19-his protein [4]): 0.06
OD450 (Human CD19-his protein [5]): 0.25
binding result [6]: no binding
OD450 (Human CD19-his protein [7]): 1.62
OD450 (Human CD19-his protein [8]): 0.08
OD450 (Human CD19-his protein [9]): 1.91
B2: F5.7.1 (antibody, human IgG1, V domains shown)
VH: QVTLKESGPGILQPSQTLSLTCSFSGFSLTTFGMGVGWIRQPSGKGLEWLTHIWWDDDKYYNPALKSRLTISKDTSKNQVFLRIANVDTADTATYYCARVITTGVPYFDYWGQGTTLTVSS
VL: ENVLTQSPAIMSASPGEKVTMTCRASSSVSSSYLYWYQQKSGASPKLWISSTSNLASGVPARFSGSGSGTSYSLTINSVEAEDAATYYCQQYSGYPWTFGGGTKLEIK
notes: as for B1

OD450 (Human CD19-his protein [1]): 1.06
binding result (murine CD19 protein): no binding
OD450 (Human CD19-his protein [2]): 1.27
EC50 (read off the curve) (Human CD19-his protein [3]): ~30 pM
OD450 (Human CD19-his protein [4]): 0.06
OD450 (Human CD19-his protein [5]): 0.24
binding result [6]: no binding
OD450 (Human CD19-his protein [7]): 1.12
OD450 (Human CD19-his protein [8]): 0.08
OD450 (Human CD19-his protein [9]): 1.35
B3: F4.15.9 (antibody, human IgG1, V domains shown)
VH: QVQLQQSGPELVKPGASVKISCKASGYAFSSSWMNWLKQRPGQGLEWIGRIYPGDGDTNYNGKFKGKATLTADESSSTAYMQLSSLTSVDSAVYFCARGITTIITIAWFASWGQGTLVTVSA
VL: QIVLSQSPTILSASPGEKVTMTCRASSSVSYMHWYQQKPGSSPKPWIYATSNLASGVPPRFSGSGSGTSYSLTISRVGAEDAATYYCQQWSSDPWTFGGGTKLEIK
notes: as for B1

OD450 (Human CD19-his protein [1]): 0.33
binding result (murine CD19 protein): no binding
OD450 (Human CD19-his protein [2]): 1.56
EC50 (read off the curve) (Human CD19-his protein [3]): ~400 pM
OD450 (Human CD19-his protein [4]): 0.05
OD450 (Human CD19-his protein [5]): 0.09
binding result [6]: no binding
OD450 (Human CD19-his protein [7]): 1.11
OD450 (Human CD19-his protein [8]): 0.06
OD450 (Human CD19-his protein [9]): 1.49
B4: F5.3.6 (antibody, human IgG1, V domains shown)
VH: DVQLQESGPGLVKPSQSQSLTCSVTGYSITSGYYWNWIRQFPGNKLEWMGYISYDGSNNYNPSLKNRISITRDTSKNQFFLKLNSVTTEDTVTYYCARAPLTGDRYWYFDVWGTGTTVTVSS
VL: DIVLTQSPASLAVSLGQRATISCRASQSVSTSSYSYMHWYQQKPGQTPKLLIKYASNLKSGVPARFSGSGSGTDFTLNIHPVEEEDTATYYCQHSWEIPPTFGGGTKLEIK
notes: as for B1

OD450 (Human CD19-his protein [1]): 1.56
binding result (murine CD19 protein): no binding
OD450 (Human CD19-his protein [2]): 2.14
EC50 (read off the curve) (Human CD19-his protein [3]): ~40 pM
OD450 (Human CD19-his protein [4]): 0.06
OD450 (Human CD19-his protein [5]): 0.33
binding result [6]: no binding
OD450 (Human CD19-his protein [7]): 2.14
OD450 (Human CD19-his protein [8]): 0.09
OD450 (Human CD19-his protein [9]): 2.25
B5: F4.272.13 (antibody, human IgG1, V domains shown)
VH: QVQLKESGPGLVAPSQSLSITCTVSGFSLTDYGVSWIRQPPGKGLEWLGVIWGSETTFYNSALKSRLSISKDNSKSQLFLQMNSLQADDTAIYYCAKHHYYGGSFSMDYWGQGTSVTVSS
VL: DIQMTQTTSSLSASLGDRVTISCRASQDINNYLNWYQQKPDGTVKFLIYYTSRLHSGVPSRFSGSGSGTDYSLTISDLEQEDIATYFCQQGNTLPYTFGGGTKLEIK
notes: as for B1
